Measurements taken from patent US20100227400A1 (published 2010).
Substitutions are numbered along the chain they refer to. Names may count otherwise.

How the values were obtained:
[1] = molecular target: the molecule itself; test: oligomeric state of the mutant, self-association
[2] = molecular target: the molecule itself; test: analytical equilibrium centrifugation; model in which the tetramer dimerizes into an octamer
Method: The data were analyzed globally at 10,000, 14,000, and 20,000 rpm by nonlinear least-squares analysis using the Origin software package (Beckman). The goodness of fit was evaluated on the basis of the magnitude and randomness of the residuals, expressed as the difference between the experimental data and the theoretical curve and also by checking each of the fit parameters for physical reasonability.

[3] = molecular target: the molecule itself; test: non-denaturing polyacrylamide gel electrophoresis, self-association
Method: The mutant proteins were prepared following standard methodology and analyzed with polyacrylamide gel electrophoresis as described (Baird et al., supra, 2000). […] This solution was centrifuged in a Beckman XL-1 analytical ultracentrifuge in PBS at 10,000 rpm, 12,000 rpm, 14,000 rpm, and 20,000 rpm.
No attempt was made to disrupt the A:B and C:D interfaces.

[4] = molecular target: the molecule itself; test: fluorescence excitation spectra, FRET within the oligomer
Method: Absorption/Fluorescence Spectra and Extinction Coefficients—Fluorescence spectra were taken with a Fluorolog spectrofluorimeter (Spex Industries, Edison, N.J.). Absorbance spectra of proteins were taken with a Cary ITV-V is spectrophotometer. […] Corrections were included in the quantum yield calculation for the refractive index difference between ethanol and water. For extinction coefficient determination, native protein absorbance was measured with the spectrophotometer, and protein concentration was measured by the BCA method (Pierce).

[5] = molecular target: the molecule itself; test: analytical equilibrium ultracentrifugation, self-association
Method: The data were analyzed globally at 10K, 14K, and 20K rpm by nonlinear least-squares analysis using the ORIGIN software package supplied by Beckman. The goodness of fit was evaluated on the basis of the magnitude and randomness of the residuals, expressed as the difference between the experimental data and the theoretical curve and also by checking each of the fit parameters for physical reasonability.

[6] = molecular target: the molecule itself; test: SDS-PAGE without boiling, self-association
[7] = molecular target: the molecule itself; test: SDS-PAGE with and without boiling, intermolecular self-association
[8] = molecular target: T1, DsRed fused downstream of the Gal4 DNA binding domain (pGBT9) (Discosoma sp.); test: yeast two hybrid, negative control
T1 construct: range 1-147; also called DsRed-prey
Method: Yeast two hybrid assays were also performed. […] Alternatively, the yeast were grown on filters placed on plates lacking tryptophan and leucine to select for the bait and prey plasmids. After overnight growth, the filters were removed from the plates, frozen in liquid nitrogen, thawed, and incubated in X-gal overnight at 30° C. and two days at 4° C. to test for β-galactosidase activity (assayed by blue color development).

B1: DsRed-I125R (other)
chain: MRGSHHHHHHGMASMTGGQQMGRDLYDDDDKDPMRSSKNVIKEFMRFKVRMEGTVNGHEFEIEGEGEGRPYEGHNTVKLKVTKGGPLPFAWDILSPQFQYGSKVYVKHPADIPDYKKLSFPEGFKWERVMNFEDGGVVTVTQDSSLQDGCFIYKVKFRGVNFPSDGPVMQKKTMGWEASTERLYPRDGVLKGEIHKALKLKDGGHYLVEFKSIYMAKKPVQLPGYYYVDSKLDITSHNEDYTIVEQYERTEGRHHLFL
notes: Protomer
binding result [1]: binds

B2: DsRed obligate tetramer (polyHis-tagged) (other)
chain: B1 chain with R158I
notes: The tetramer as a unit, for the fitted tetramer-to-octamer dissociation constant; also called tetramer of polyHis-tagged DsRed
Kd [2]: 39 µM

B3: DsRed I125K (other)
chain: B1 chain with R158K
notes: Protomer; mixture of dimer and tetramer
binding result [3]: binds

B4: T1 DsRed-I125R (other)
chain: B1 chain with R35A, K38E, N39D, T54S, H74T, N75Q, V77A, C150S, T250A
notes: Protomer; forms a dimer; also called T1-I125R
binding result [1]: binds

B5: T1 (Discosoma sp. variant fast T1 red fluorescent protein) (other)
chain: B1 chain with R35A, K38E, N39D, T54S, H74T, N75Q, V77A, C150S, R158I, T250A
notes: Protomer of a tetramer; also called fast tetramer T1; DsRed-Express
binding result [4]: binds

B6: dimer2 (Discosoma variant red fluorescent protein) (other)
chain: MRGSHHHHHHGMASMTGGQQMGRDLYDDDDKDPMVASSEDVIKEFMRFKVRMEGSVNGHEFEIEGEGEGRPYEGTQTAKLKVTKGGPLPFAWDILSPQFQYGSKAYVKHPADIPDYKKLSFPEGFKWERVMNFEDGGVVTVTQDSSLQDGTLIYKVKFRGTNFPPDGPVMQKKTMGWEASTERLYPRDGVLKGEIHQALKLKDGGHYLVEFKTIYMAKKPVQLPGYYYVDTKLDITSHNEDYTIVEQYERSEGRHHLFL
notes: Protomer; forms an AC dimer
binding result [5]: binds

B7: tandem DsRed (tDsRed) (other)
chain: MRGSHHHHHHGMASMTGGQQMGRDLYDDDDKDPMRSSKNVIKEFMRFKVRMEGTVNGHEFEIEGEGEGRPYEGHNTVKLKVTKGGPLPFAWDILSPQFQYGSKVYVKHPADIPDYKKLSFPEGFKWERVMNFEDGGVVTVTQDSSLQDGCFIYKVKFIGVNFPSDGPVMQKKTMGWEASTERLYPRDGVLKGEIHKALKLKDGGHYLVEFKSIYMAKKPVQLPGYYYVDSKLDITSHNEDYTIVEQYERTEGRHHLFLGSTSGSGKPGSGEGSTKGMRSSKNVIKEFMRFKVRMEGTVNGHEFEIEGEGEGRPYEGHNTVKLKVTKGGPLPFAWDILSPQFQYGSKVYVKHPADIPDYKKLSFPEGFKWERVMNFEDGGVVTVTQDSSLQDGCFIYKVKFIGVNFPSDGPVMQKKTMGWEASTERLYPRDGVLKGEIHKALKLKDGGHYLVEFKSIYMAKKPVQLPGYYYVDSKLDITSHNEDYTIVEQYERTEGRHHLFL
binding result [6]: binds

B8: tandem DsRed-I125R (tDsRed-I125R) (other)
chain: B7 chain with I158R, I401R
binding result [7]: no binding

B9: Gal4 activation domain alone (pGAD GH without DsRed) (other, UniProt P04386 768-881, looked up)
chain: ANFNQSGNIADSSLSFTFTNSSNGPNLITTQTNSQALSQPIASSNVHDNFMNNEITASKIDDGNNSKPLSPGWTDQTAYNAFGITTGMFNTTTMDDVYNYLFDDEDTPPNPKKE
notes: range 768-881; Negative control of the two hybrid assay
binding result [8]: no binding
